Laboratory results: article PMC10668032, “Altered binding affinity of SIX1-Q177R correlates with enhanced WNT5A and WNT pathway effector expression in Wilms tumor”
Substitutions are numbered along the chain they refer to.

T1: SIX1 (human, UniProt Q15475 1-284)
T1 sequence: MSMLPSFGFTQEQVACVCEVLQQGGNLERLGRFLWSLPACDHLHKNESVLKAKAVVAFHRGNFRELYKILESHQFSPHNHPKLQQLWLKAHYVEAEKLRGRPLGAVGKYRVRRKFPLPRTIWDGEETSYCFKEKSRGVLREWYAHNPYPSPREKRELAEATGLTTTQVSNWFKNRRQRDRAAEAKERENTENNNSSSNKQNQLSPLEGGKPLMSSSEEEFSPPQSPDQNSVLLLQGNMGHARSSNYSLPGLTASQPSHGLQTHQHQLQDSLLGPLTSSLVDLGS

B1: WNT5A_promoter_EMSA (dsDNA)
DNA 1: CCCGCCCTAAGTGTCAAATTTCCTCCAGGGGAG
DNA 2: CTCCCCTGGAGGAAATTTGACACTTAGGGCGGG
B2: WNT5A_promoter_EMSAmut (dsDNA)
DNA 1: B1 DNA 1 with G13A
DNA 2: B1 DNA 2 with C21T

Assays:
SIX1 [1] = molecular target: T1, SIX1; test: EMSA; EMSA: Active Motif Gelshift or Thermo LightShift chemiluminescent kit binding buffer, no glycerol, no poly d(I-C), RT 25 min; protein dilutions 1-300 nM; 6% gel in 0.5x TBE; pH and salt not given; settings: protein: recombinant; tags: N-terminal HA from pGEX-6p1-N-HA (GST removed with PreScission); label: biotin 3' end (both strands, Pierce 3' end-labeling kit); blunt
SIX1 [2] = molecular target: T1, SIX1; test: EMSA; modest increase in affinity vs N1; EMSA: Active Motif Gelshift or Thermo LightShift chemiluminescent kit binding buffer, no glycerol, no poly d(I-C), RT 25 min; protein dilutions 1-300 nM; 6% gel in 0.5x TBE; pH and salt not given; settings: protein: recombinant; tags: N-terminal HA from pGEX-6p1-N-HA (GST removed with PreScission); label: biotin 3' end (both strands, Pierce 3' end-labeling kit); blunt

Binder | binding signal (SIX1 [1]) | binding result (SIX1 [2])
B1 | ~0.1 affinity relative to SIX1-Q177R on same probe | –
B2 | – | binds
